Laboratory results published in US20250172552A1 (ANN AND ROBERT H LURIE CHILDREN S HOSPITAL OF CHICAGO, published 2025).

T1: KDpeptide2
T1 construct: Synthetic peptide (Anaspec) coated on ELISA plates at 800 ng per well
T1 peptide: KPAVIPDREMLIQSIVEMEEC

T2: KDpeptide3
T2 construct: Synthetic peptide (Anaspec) coated on ELISA plates at 800 ng per well; also the base peptide of substitution scans; also called Kdpep3; KD3
T2 peptide: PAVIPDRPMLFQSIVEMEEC

B1: KD7-2H5 (antibody, V domains shown)
VH: EVQLVESGGGLVQPGGSLRLSCAASGFTFSSYWMHWVRQAPGKGLVWVSRINSDGSSTSYADSVKGRFAISRDNAKNTLYLQMNSLRAEDTAVYYCARALGGWDIDYWGQGTLVTVS
VL: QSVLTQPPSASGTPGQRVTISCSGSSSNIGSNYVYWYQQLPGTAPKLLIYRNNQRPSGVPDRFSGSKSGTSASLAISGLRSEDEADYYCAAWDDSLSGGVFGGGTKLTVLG
B2: KD5-2D7 (antibody, V domains shown)
VH: EVQLVESGGGLVQPGGSLGLSCAASGFTFSNYWMHWVRQAPGKGLVWVSRINSDGSDTSYADSVKGRFTISRDNAENTLYLHMSSLRAEDTAVYYCARELGYGDYGMDVWGKGTTVTVS
VL: QSVLTQPPSASGTPGQRVTISCSGSSSNIGSHSVIWYQQLPGTAPKLLVYSDNQRPSGVPDRFSGSKSGTSASLAISGLQSEDEADYYCAAWDDSLNHLHVVFGGGTKLTVL
B3: KD11-2E4 (antibody, V domains shown)
VH: EVQLVESGGGVVQPGESLRLSCAASGVTFSSYWMHWVRQVPGKGLVWVARINIDGTSTTYADCVKGRFTISRDNAKNTLYLQMSSLRAEDTAVYYCATERGLLSGGRWHSSHFDYWGQGTLVTVS
VL: DIQMTQSPSTLSASVGDRVTITCRASQSISSWLAWYQQKPGKAPKVLIYKTSSLESGVPSRFSGSGSGTEFTLTISSLQPDDFATYYCQQYDSSSLTWTFGQGTKVEIK
B4: KD7-1B5 (antibody, V domains shown)
VH: VQLVESGGGVVQPGRSLRLSCEASGFTFRSRAMHWVRQAPGKGLGWVAVIWYDGSNKYYADSVKGRFTISRDNSRNTLYLQMNSLRAEDTAVYYCARDLGSGFSLDYWGQGTLVTVS
VL: QSVLTQPPSVSAAPGQKVTISCSGSSSNIGNNYVSWYQQLPGTAPKLLIYDNNKRPSGIPDRFSGSKSGTSATLGITGLQTGDEADYYCGTWDSSLSAEVFGGGTKLTVLG
B5: KD1-1H8 (antibody, V domains shown)
VH: EVQLVESGGGSVQPGGSLRLSCAASGFTFSNYWMHWVRQAPGKGLVWVSRLNIDGSNTFYADSVKGRFTISRDNAKNTLYLQMNSLRAEDTAVYYCVRGGSDSGDSVPFDLWGRGTLVTVS
VL: EIVMTQSPATLSVSPGERATLSCRASQSVSSNLAWYQQNPGQAPRLLIYGASTRATGIPARFSGSGSGTEFTLTISSLQSEDFAVYYCQHYNNWPFTFGQGTKVEIK
B6: KD1-2B1 (antibody, V domains shown)
VH: EVQLVESGGGLVQPGGSLRLSCAASGFTFSSYWMHWVRQAPGKGLVWVSRINNDGSSTGYADSVEGRFTISRDNAKNTLYLQINSLRAEDTAVYYCARQDGHYYYSMDVWGQGTTVTV
VL: QSALTQPRSVSGSPGQSVTISCTGTSSDVGGYNYVSWYQQHPGKAPKLMIYDVSERPSGVPARFSGSKSGNTASLTISGLQAEDEADYYCCSYAGNFRWVFGGGTKLTVL
B7: KD10-1G3 (antibody, V domains shown)
VH: EVQLVESGGGLVQPGGSLKLSCAASGFSFSGAAMHWVRQSSGRGLEWLGRIRSKTNDYATAYAESLHGRFTISRDDAKNTAYLQMNRLKSEDTAIYYCTTVLSKGDHAVWLGPWGPGTLVTV
VL: QPVLTQPPSSSASPGESARLTCTLPSDISVAASDIYWYQQKAGSPPNFLLYDPSDSHKGQDSGVPSRFSGSRDGSANSGFLLISGVQSEDEADYYCMVWPPNTVGVVFGGGTTLTV
B8: KD2-1D10 (antibody, V domains shown)
VH: EVQLVESGGGLIHPGGSLRLSCAASGFTFSSYWMHWVRQAPGKGLVWVSHIKSDGSNTIYADSVKGRFTISRDNAKNTLYLQMNSLRAEDTAVYYCGRGRSLTPRSAIDYWGQGTLVTV
VL: QSALTQPPSASGSPGQSVTITCTGTSSDVGGYNYVSWYQQHPGKAPKLMIYEVSKRPSGVPDRFSGSKSGNTASLTVSGLQAEDEADYHCSSFAGDNNSPVFGGGTKLTVL
B9: KD12-1G7 (antibody, V domains shown)
VH: EVQLVESGGGLVQPGGSLRLSCGASGFTVSGKYMTWARQAPEKGLEWVSAIYRGGGTYYADSVKGRFTISRDNSKNMLYLQMNSLRAEDTAVYYCGGSVMVSATDYWGQGTLVTV
VL: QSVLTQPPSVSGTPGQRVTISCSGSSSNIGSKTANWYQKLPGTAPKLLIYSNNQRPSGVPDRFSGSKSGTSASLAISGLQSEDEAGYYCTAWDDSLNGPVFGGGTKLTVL
B10: KD3-1C10 (antibody, V domains shown)
VH: EVQLVESGGGLVQPGGSLRLSCAASGFTFSNHWMHWVRQAPGKGLLWVSRIDTGGSTTNYADSVKGRFTISRDSAKNTVYLQMNSLRAEDTAVYYCARGGLFYYGMDVWGQGTTVTV
VL: EIVLTQSPGTLSLSPGERATLSCRASQTSSSTSLAWYQQKRGQAPRLLIYGASRRATGIPDRFSGSGSGTDFTLTISRLEPEDFAVYYCQQFSGSPAYTFGQGTKVEIK
B11: KD10-1A8 (antibody, V domains shown)
VH: EVQLVESGGGLVQPGGSLRLSCAASGFTFSSYWMEWVRQAPGKGLVWVSHISSDGSVTRYVDSVKGRFTISRDNAKNTLYLQMNSLRAEDTGVYYCAKDLHWNALDVWGQGTMVTVS
VL: DIVMTQTPLSLSVTPGQPASISCKSSQSLLHNDGKTFLHWYLQKPGQSPQLLIYEVSSRFSGVPDRFSGSGSGTDFTLKISRVEAEDVGVYYCMQGIHLPPTFGGGTKVEIKR
B12: KD12-2A10 (antibody, V domains shown)
VH: EVQLVESGGGLVKPGGSLRLSCAASGFTFINAWMNWVRQAPGKGLEWVGLIKSKTDGGTIDYAAPVKGRFTISRDDSEKMLYLQMDSLKTEDTAVYYCTTMYGWKDARDYWGQGTLVTV
VL: EIVLTQSPGTLSLSPGERATLSCRASQSVSSNLAWYQQKPGQAPRVLIYGASSRATGIPDRFSGSRSGTDFTLTISRLEPEDFAVYYCQRYDNSPRTFGQGTKVEIK
B13: KD9-2H6 (antibody, V domains shown)
VH: EVQLVESGGGLVKPGESLRLSCVGSGFTLTNAWMIWVRQTSGKGLEWVGRIKSKIDGGAIDYGAPVKGRFTISRDDTKNTVYLQMNSLQTDDTGVYFCTTDRYSTGYYGMDDYWGQGTLVTV
VL: SYELTQPPSVSVSPGQTATITCSGDKLGDKYSFWYQQKPGQSPVVVIYQDSKRPSGIPERFSGSNSGNTATLTISGTQAMDEADYYCQVWDTDSAVFGTGTRVTV
B14: KD9-2A4 (antibody, V domains shown)
VH: LVESGGGLVQPGGSLRLSCAASGFTFSSYAMHWVRQAPGKGLEFASAISSDGGTTYYANSVKGRFTISRDNSKNTLYLQMGSLRDEDMAVYYCARDDLSTSWDLDYWGQGTLVTV
VL: QSALTQPASVSGSPGQSITISCTGTSSDVGGYNYVSWYQQHPGKAPKLMIYDVSNRPSGVSNRFSGSKSGNTASLTISGLQAEDEADYYCSSYTISSTNVFGTGTKVTVL

Biological target: T1, KDpeptide2
Assay: ELISA on coated synthetic peptides, direct comparison

Row | Binder | binding result
1 | B1 | binds
2 | B2 | binds
3 | B3 | binds
4 | B4 | binds
5 | B5 | binds
6 | B6 | binds
7 | B7 | binds
8 | B8 | binds

Biological target: T2, KDpeptide3
Assay: ELISA on coated synthetic peptide

Row | Binder | binding result
9 | B1 | binds
10 | B2 | binds
11 | B9 | binds
12 | B10 | binds
13 | B3 | binds
14 | B4 | binds
15 | B11 | binds
16 | B12 | binds
17 | B5 | binds
18 | B6 | binds
19 | B7 | binds
20 | B8 | binds

Biological target: T2, KDpeptide3
Assay: ELISA on coated synthetic peptide
Remark: another data set of the same source

Row | Binder | binding result
21 | B13 | no binding
22 | B14 | no binding

Biological target: T1, KDpeptide2
Assay: ELISA on coated synthetic peptide

Row | Binder | binding result
23 | B13 | no binding
24 | B14 | no binding
